Here are results for 22 molecules from patent US20260049138A1 (Chugai, published 2026).

First the molecules themselves.
B1: GLS3000 L27bV one-arm antibody (antibody, human IgG1, kappa, L234A L235A, N297A, name in Kabat numbering)
heavy: QVQLVESGGGVVQPGRSLRLSCAASGFTFSNAWMHWVRQAPGKGLEWVAQIKAKSNNYATYYAESVKGRFTISRDDSKNSLYLQMNSLKTEDTAVYYCRYVHYGAYYGVDAWGQGTTVTVSSASTKGPSVFPLAPSSKSTSGGTAALGCLVKDYFPEPVTVSWNSGALTSGVHTFPAVLQSSGLYSLSSVVTVPSSSLGTQTYICNVNHKPSNTKVDKKVEPKSCDKTHTCPPCPAPEAAGGPSVFLFPPKPKDTLMISRTPEVTCVVVDVSHEDPEVKFNWYVDGVEVHNAKTKPREEQYASTYRVVSVLTVLHQDWLNGKEYKCKVSNKALPAPIEKTISKAKGQPREPQVYTLPPSRCELTKNQVSLSCAVKGFYPSDIAVEWESNGQPENNYKTTPPVLDSDGSFFLVSKLTVDKSRWQQGNVFSCSVMHEALHNHYTQKSLSLSPDYKDDDDK
chain: EPKSSDKTHTCPPCPAPELLGGPSVFLFPPKPKDTLMISRTPEVTCVVVDVSHEDPEVKFNWYVDGVEVHNAKTKPREEQYNSTYRVVSVLTVLHQDWLNGKEYKCKVSNKALPAPIEKTISKAKGQPREPQVCTLPPSRDELTKNQVSLWCLVKGFYPSDIAVEWESNGQPENNYKTTPPVLDSDGSFFLYSKLTVDKSRWQQGNVFSCSVMHEALHNRYTQKSLSLSP
light: DIVMTQSPLSLPVTPGEPASISCRSSQSVVHSNRNTYLHWYQQKPGQAPRLLIYKVSNRFSGVPDRFSGSGSGTDFTLKISRVEAEDVGVYYCGQGTQVPYTFGQGTKLEIKRTVAAPSVFIFPPSDEQLKSGTASVVCLLNNFYPREAKVQWKVDNALQSGNSQESVTEQDSKDSTYSLSSTLTLSKADYEKHKVYACEVTHQGLSSPVTKSFNRGEC
B2: GLS3000 L33M one-arm antibody (antibody, human IgG1, kappa, L234A L235A, N297A, name in Kabat numbering)
heavy: B1 heavy
chain: B1 chain
light: B1 light with V29L, L38M
B3: GLS3000 L33I one-arm antibody (antibody, human IgG1, kappa, L234A L235A, N297A, name in Kabat numbering)
heavy: B1 heavy
chain: B1 chain
light: B1 light with V29L, L38I
B4: GLS3000 N28L one-arm antibody (antibody, human IgG1, kappa, L234A L235A, N297A, name in Kabat numbering)
heavy: B1 heavy
chain: B1 chain
light: B1 light with V29L, N33L
B5: GLS3000 N28A one-arm antibody (antibody, human IgG1, kappa, L234A L235A, N297A, name in Kabat numbering)
heavy: B1 heavy
chain: B1 chain
light: B1 light with V29L, N33A
B6: GLS3000 L33V one-arm antibody (antibody, human IgG1, kappa, L234A L235A, N297A, name in Kabat numbering)
heavy: B1 heavy
chain: B1 chain
light: B1 light with V29L, L38V
B7: GLS3000 L33P one-arm antibody (antibody, human IgG1, kappa, L234A L235A, N297A, name in Kabat numbering)
heavy: B1 heavy
chain: B1 chain
light: B1 light with V29L, L38P
B8: GLS3000 N28I one-arm antibody (antibody, human IgG1, kappa, L234A L235A, N297A, name in Kabat numbering)
heavy: B1 heavy
chain: B1 chain
light: B1 light with V29L, N33I
B9: GLS3000 L27bW one-arm antibody (antibody, human IgG1, kappa, L234A L235A, N297A, name in Kabat numbering)
heavy: B1 heavy
chain: B1 chain
light: B1 light with V29W
B10: GLS3000 N28G one-arm antibody (antibody, human IgG1, kappa, L234A L235A, N297A, name in Kabat numbering)
heavy: B1 heavy
chain: B1 chain
light: B1 light with V29L, N33G
B11: GLS3000 N28M one-arm antibody (antibody, human IgG1, kappa, L234A L235A, N297A, name in Kabat numbering)
heavy: B1 heavy
chain: B1 chain
light: B1 light with V29L, N33M
B12: GLS3000 L27bY one-arm antibody (antibody, human IgG1, kappa, L234A L235A, N297A, name in Kabat numbering)
heavy: B1 heavy
chain: B1 chain
light: B1 light with V29Y
B13: GLS3000 N28K one-arm antibody (antibody, human IgG1, kappa, L234A L235A, N297A, name in Kabat numbering)
heavy: B1 heavy
chain: B1 chain
light: B1 light with V29L, N33K
B14: GLS3000 L33F one-arm antibody (antibody, human IgG1, kappa, L234A L235A, N297A, name in Kabat numbering)
heavy: B1 heavy
chain: B1 chain
light: B1 light with V29L, L38F
B15: GLS3000 N28H one-arm antibody (antibody, human IgG1, kappa, L234A L235A, N297A, name in Kabat numbering)
heavy: B1 heavy
chain: B1 chain
light: B1 light with V29L, N33H
B16: GLS3000 N28P one-arm antibody (antibody, human IgG1, kappa, L234A L235A, N297A, name in Kabat numbering)
heavy: B1 heavy
chain: B1 chain
light: B1 light with V29L, N33P
B17: GLS3000 N28D one-arm antibody (antibody, human IgG1, kappa, L234A L235A, N297A, name in Kabat numbering)
heavy: B1 heavy
chain: B1 chain
light: B1 light with V29L, N33D
B18: GLS3000 N28E one-arm antibody (antibody, human IgG1, kappa, L234A L235A, N297A, name in Kabat numbering)
heavy: B1 heavy
chain: B1 chain
light: B1 light with V29L, N33E
B19: GLS3000 N28F one-arm antibody (antibody, human IgG1, kappa, L234A L235A, N297A, name in Kabat numbering)
heavy: B1 heavy
chain: B1 chain
light: B1 light with V29L, N33F
B20: GLS3000 L33A one-arm antibody (antibody, human IgG1, kappa, L234A L235A, N297A, name in Kabat numbering)
heavy: B1 heavy
chain: B1 chain
light: B1 light with V29L, L38A
B21: GLS3000 L33D one-arm antibody (antibody, human IgG1, kappa, L234A L235A, N297A, name in Kabat numbering)
heavy: B1 heavy
chain: B1 chain
light: B1 light with V29L, L38D
B22: GLS3000 L33E one-arm antibody (antibody, human IgG1, kappa, L234A L235A, N297A, name in Kabat numbering)
heavy: B1 heavy
chain: B1 chain
light: B1 light with V29L, L38E

Positions count from the first letter of the chain named. Names and notes keep the numbering of the source.

The target in the assay is T1, CD3ε homodimer protein (human, UniProt P07766 23-126, limits assumed).
T1 construct: also called CD3 (CD3ε)
T1 sequence (P07766 23-126 limits assumed): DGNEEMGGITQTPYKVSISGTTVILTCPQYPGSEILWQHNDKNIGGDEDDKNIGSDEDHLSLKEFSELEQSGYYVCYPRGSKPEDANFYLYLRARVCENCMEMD
Nature of the assay: SPR Biacore T200, CD3ε homodimer on chip.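 Note: Light-chain single-residue variant antibodies injected over amine-coupled CD3ε homodimer on a CM4 chip at 25 °C, bound amount divided by that of the GLS3000-containing antibody.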
For the molecule B1, the “ratio of amount bound vs unaltered GLS3000” value (“ratio of amount bound” below) was 1.12.

For the molecule B2, the “ratio of amount bound” value amounted to 0.93.

Take B3: the “ratio of amount bound” value turned out to be 0.83.

With B4, the “ratio of amount bound” value turned out to be 0.39.

Turning to B5, the “ratio of amount bound” value is 0.25.

Consider B6, for which the “ratio of amount bound” value amounted to 1.05.

Take B7: the “ratio of amount bound” value is 0.3.

On to B8, for which the “ratio of amount bound” value was found to be 0.44.

B9: the “ratio of amount bound” value was determined as 0.26.

As for B10, the “ratio of amount bound” value came to 0.46.

Take B11: the “ratio of amount bound” value came out at 0.39.

As for B12, the “ratio of amount bound” value was found to be 0.25.

On to B13, for which the “ratio of amount bound” value turned out to be 0.44.

For B14, the “ratio of amount bound” value came out at 0.78.

Regarding B15, the “ratio of amount bound” value was 0.42.

With B16, the “ratio of amount bound” value was 0.36.

B17: the “ratio of amount bound” value stood at 0.19.

Regarding B18, the “ratio of amount bound” value came to 0.4.

Turning to B19, the “ratio of amount bound” value came out at 0.46.

On to B20, for which the “ratio of amount bound” value was determined as 0.85.

With B21, the “ratio of amount bound” value was 0.17.

As for B22, the “ratio of amount bound” value was determined as 0.72.
